Assay results taken from PMC10119932.

target: Human FcRn (human) (UniProt P55899); assay: BLI; human FcRn immobilised, antibody or ADC as analyte; performed as previously reported (refs. 35, 36); no conditions told
Sequence of UniProt P55899 (P55899 24-365): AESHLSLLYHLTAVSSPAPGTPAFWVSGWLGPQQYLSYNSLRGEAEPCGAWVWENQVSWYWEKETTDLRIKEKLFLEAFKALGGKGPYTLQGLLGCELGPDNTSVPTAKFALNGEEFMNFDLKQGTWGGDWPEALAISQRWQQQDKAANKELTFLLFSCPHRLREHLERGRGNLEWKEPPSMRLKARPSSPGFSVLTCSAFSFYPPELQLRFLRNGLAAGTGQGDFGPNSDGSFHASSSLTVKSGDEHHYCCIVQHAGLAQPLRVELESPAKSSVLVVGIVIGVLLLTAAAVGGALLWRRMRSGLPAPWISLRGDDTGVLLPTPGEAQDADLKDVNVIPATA

| Kd [nM] | koff [s⁻¹] | kon [M⁻¹ s⁻¹] | Substance |
| --- | --- | --- | --- |
| 5.65 | 0.00377 | 667000 | Trastuzumab (Herceptin), human IgG1 (antibody) |
| 5.6 | 0.000848 | 152000 | Trastuzumab-K248-MMAE (5a) (antibody) |
| 7.22 | 0.00383 | 530000 | Trastuzumab-K288-MMAE (5b) (antibody) |
